Source: publication doi:10.1101/2020.11.25.397760 (bioRxiv, 2020)

Biological target: the molecule itself
Assay: electron microscopy

B1: FliP (natural protein, Salmonella enterica serovar Typhimurium)
chain: QLPGLISQPLAGGGQSWSLSVQTLVFITSLTFLPAILLMMTSFTRIIIVFGLLRNALGTPSAPPNQVLLGLALFLTFFIMSPVIDKIYVDAYQPFSEQKISMQEALDKGAQPLRAFMLRQTREADLALFARLANSGPLQGPEAVPMRILLPAYVTSELKTAFQIGFTIFIPFLIIDLVIASVLMALGMMMVPPATIALPFKLMLFVLVDGWQLLMGSLAQSFYS
B1: binds.
